Test results: patent US20180265882, “PLANTS WITH INCREASED SEED SIZE” (THE INSTITUTE OF GENETICS AND DEVELOPMENTAL BIOLOGY, published 2018)

T1: SOD7 (NGAL2, At3g11580) (Arabidopsis thaliana, UniProt Q8RYD3 SEQ:1-267)
T1 sequence: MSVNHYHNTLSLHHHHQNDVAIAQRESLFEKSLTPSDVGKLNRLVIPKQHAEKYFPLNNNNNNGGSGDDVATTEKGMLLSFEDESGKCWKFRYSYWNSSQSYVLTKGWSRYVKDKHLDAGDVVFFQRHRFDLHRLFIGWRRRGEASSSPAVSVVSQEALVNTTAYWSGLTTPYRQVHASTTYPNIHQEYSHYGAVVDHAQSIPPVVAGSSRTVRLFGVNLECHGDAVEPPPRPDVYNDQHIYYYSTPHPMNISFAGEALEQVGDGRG

B1: KLU promoter probe A-m (dsDNA)
DNA 1: TTCTACTAACACCTCTCTCTGTA
DNA 2: TACAGAGAGAGGTGTTAGTAGAA
B2: KLU promoter probe A (dsDNA)
DNA 1: TTCTACTACACTTGCTCTCTGTA
DNA 2: TACAGAGAGCAAGTGTAGTAGAA

Columns and labels:
SOD7 (NGAL2, At3g11580) [1] = target: T1, SOD7 (NGAL2, At3g11580); assay: EMSA; mutated CACTTG, failed to bind; conditions: tags: N-terminal MBP fusion (pMAL-C2), expressed in E. coli BL21(DE3), amylose purified; label: biotin
Experimental: (§1) (A) Expression dynamics of SOD7 and KLU in pER8-SOD7 transgenic plants treated with β-estradiol for 0, 4 and 8 hours. Means were calculated from three biological samples. Values are given as mean±SD. **, P<0.01, compared with the expression level of KLU and SOD7 at 0 hour, respectively (Student's t-test). (B) A 2-kb promoter region of KLU upstream of its ATG codon contains a CACTTG sequence. PF1 and PF2 represent PCR fragments used for ChIP-quantitative PCR analysis. A and A-m indicate the wild-type probe and the mutated probe used in the EMSA essay, respectively. […] Chromatin from 35S:GFP and 35S:GFP-SOD7 transgenic plants was immunoprecipitated by anti-GFP, and the enrichment of the fragments was determined by quantitative real-time PCR. The ACTIN7 promoter was used as a negative control. The fold enrichment was normalized to the ACTIN7 amplicon, set at 1. Means were calculated from three biological samples. Values are given as mean±SD. **, P<0.01, compared with 35S:GFP transgenic plants (Student's t-test). (D) Direct interaction between SOD7 and the KLU promoter determined by EMSA. […] The retarded DNA-protein complex was reduced by competition using the unlabeled probe A.
(§2) The coding sequence of SOD7 was cloned into the NdeI and BamHI sites of the pMAL-C2 vector to generate the construct MBP-SOD7. […]

SOD7 (NGAL2, At3g11580) [2] = target: T1, SOD7 (NGAL2, At3g11580); assay: EMSA; binding reduced by unlabeled probe A; conditions: tags: N-terminal MBP fusion (pMAL-C2), expressed in E. coli BL21(DE3), amylose purified; label: biotin
Experimental: as §1, §2

| Binder | binding result (SOD7 (NGAL2, At3g11580) [1]) | binding result (SOD7 (NGAL2, At3g11580) [2]) |
| --- | --- | --- |
| B1 | no binding | – |
| B2 | – | binds |
